Test: yeast display, Sf9 membrane polyspecificity reagent, FACS + sequencing; frameworks hold sequencing errors
Outline: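 Polyreactivity labels are assigned by the sorting gate from which each nanobody was recovered. The gates were low and high (top ~1%), set on anti-HA fluorescence for expression and streptavidin fluorescence for reagent binding. Before sorting, galactose-induced (36–48 hours) yeast display cells were stained for 1 hour at 4 °C with 10% biotinylated, detergent-solubilized Sf9 membrane reagent.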

Row | Sequence | polyreactivity (PSR sort gate)
1 | QVQLVESGGGLVQAGGSLRLSCAASGYTFSQNAMGWYRPAPGKERELVAGITTRGTTTYYADSVKGRFTISRDNAKNTVYLQMNSLKPEDTAVYYCAADNSYTDNYWGQGTQVTVSS | low polyreactivity
2 | QVHLVESGGGLVQAGGSLRLSCAASGSTFALYGMGWYRQAPGKERELVAASTWSGTGTYYADSVKGRFTISRDNAKNTVYLQMNSLKPEDTAVYYCAADGYTTYYSEFYYWGQATQVTVSS | low polyreactivity
3 | QVQLVESGVGLVQAGGSLRLSCASSGITFPSYTMGWYRQAPGKERELVATIRNGGSTYYADSVKGRFTISRDNAKNTVYLQMNSLKPEDTAVYYCAAVPLWDYKFFYYLLYDYWGQGTQVTVSS | low polyreactivity
4 | QVQLVESGGGLVQAGGSLRLSCAASGRIFTRNAMGWYRQAPGKERELVAAIRWSGDSTYYADSVKGRFTISRDNAKNTVYLQMNSLKPEDTAVYYCAAYRQRSHRVGTKGHRVGYWGQVTQVTVSS | high polyreactivity
5 | QVQLVESGGGLVQAGGSLRLSCAASGRTFNYYVMGWYRRAPGKERELVAAITWRGGRTYADSVKGRFTISRDNAKNTVYLQMNSLKPEDTAVYYCAAYTTKGYGYWGQGTQVTVSS | high polyreactivity
6 | QVQLVESGGGLVQAGGSLRLSCAASGIIFYLYAMGWYIQAPGKERELVAAISWGGGTTYYADSVKGRFTISRDNAKNTVYLQMNSLKPEDTAVYYCAAETEYYSYRFDYWGQGTQVTVSS | high polyreactivity
7 | QVQLVESGGGLVQAGRSLRLSCAASGLTFKWYAMGWYRQAPGKERELVAAISRDGSTYYADSVKGRFTISRDNAKNTVYLQMNSLKPEDTAVYDCAADIWPSSLLADEYDYWGQGTQVTVSS | high polyreactivity
8 | QVQLEESGGGLVQAGGSLRLSCAASGSIFDSYAMGWYRAAPGKERELVATINTSGGSTYYADSVKGRFTIHDNAKNTVYLQMNSLKPEDTAVYYCNAGRWVYWQNNFGDYGYWGQGTQVTVSS | low polyreactivity
9 | QVQLVESGGGLVQAGGSLRLSCAASGSIFEKNAMGWYRQEPGKEWELFAAISSSGGRTNYADSVKGRFTISRDNAKNTVYLHMNSLKPEDTAVYYCAAYRRGHRYTGYEYWGQGTQVTVSS | high polyreactivity
10 | QVQLVQSGGGLVQAGGSLRLSCAASGGIFRTNPMGWYRQAPGQERALVATISRRGGSTYYADSVKGRFTISRDNAKNTVYFQMNSLKPEDTAVYYCAVEWYYTSNHIRFYRDNYWGQGTQVTVSS | high polyreactivity
11 | QVQLVETGGGLVQAGGSLRLSCAPSGIIISHYAKGWYRQAPGKETELVAAISSRGGSTYYADSVKGRFTISRDIAKNTVYLQMNSLKPEDTAVYYCATTDPYDSSYYIYYYWGQGTQVTVSS | high polyreactivity
12 | QVQLVESGGGLVQAGGSLRLSCAASGSIFANNAMGWYRQAPGKERELVAAIDWSAASTYYADSVKGRFTISRDNAKNTVYLQMNSLKPEDTAVYYCNARALGGGHIGFNHYVYGFGYWGQGTQVTVSS | low polyreactivity
13 | QVQLVESGGGLVQAGGSLRLSCAASGRIFFHNAMGWYIQAPGKERELVATISWSGSSTYYADSVKGRFTISRDNAKNTVYLQMNSLKPEYTAVYYCNAVYGRFVVLRYDYWGQGTQVTVSS | high polyreactivity
14 | QVQLVESGGGLVQAGGSLRLSCAASGSIFARYAIGWYRQAPGKERELVAAISSDGSTYYADSVKGRFTISRDNAKNTVYLQMNSLKPEDTAVYYCAARAFYYAGDWYGYWGQGTQVTVSS | high polyreactivity
15 | QVQLVESGGGLVQAGGSLRLSCAASGLIFANNAMGWYRQAPGKERELVAVISRGGRTYYADSVKGRFTISRDNAKNTVYLQMNSLKPEDTAVYYCAKPVLVGLGSRYDYWGQGTQVTVSS | high polyreactivity
16 | QVQLVESGGRLVQEGGSLRLSCAASGRTLYDYAMGWYRQAPGKERELVAGITWRGGSTSYAASVKGRFTISRDNAKNTVYLEMNSLKPEDTAVYDCATDGDERMDYWGQGTQVTVAS | low polyreactivity

Row | Sequence | polyreactivity (PSR sort gate)
17 | QVQLVESGGGLVQAGVSLRLSCAASGRTFGYYAMGWYRPAPGKETELVAASTLSGGSTYYADSVKGRFTISRDNAKNTVYLQMNSLKPEYTAVYYCAAKWWHFYPYDYWGQGTQVTVSS | high polyreactivity
18 | QVQLEESGGGLVQAGGSLRLTCAASGSTFVRYVMGWYRQAPGKERELVAAISRRGGSTYYADSVKGRFTISRDNAKNTVYLEMNSLKPEDTAVYYCARTVGYRTLLESDSWGQGTQVTVSS | high polyreactivity
19 | QVQLVESGGGLVQAGGSLRLSCAASGLTFYYYAMGWYRQAPGKQRELVAAINSSGGITFYADSVKGRFTISRDNAKNTFYLQMNSLKPEDTAVYYCASGGRSNRYGYWGQGTQVTVSS | low polyreactivity
20 | QVQLVESGGGIVQAGGSLRLSCAASGRTFDSYAMGWYRQAPGKERELVAAITYSGGSTYYADSVKGRFTISRDNAKNTVYLQMNSLKPEDTAVYYCARDRFYYRLAGSKGRRKGDYWGQGTQVTVSS | high polyreactivity
21 | QVQLVESGGGLVQAGGSLRLSCAASGFLFRYYARGWYRQAPGKERELVADISQNGDSTYYADSVKGRFTISRDTAKITVYLQMNCLNPDDTAVYYCNADNDPWPYFDGIFSVDMDYWGQGTQVTVSS | low polyreactivity
22 | QVQLVESGGGLVQAGGSLRLSCAASGIIFDKNAMGWYRQAPGKERELVAVITRGGSTYYADSVKGRFTISRDNAKNTVYLQMNSLKPEDTAVYYCAARYTPGFGYWGQGTQVTVSS | high polyreactivity
23 | QVQLVESGGGLVQAGCSLRLSCAASGRILFGYAMGWYRQAPGKERELVADITSTGSTNYADSVKGRFTISRDNAKNTVYLQMNSLKPEDTAVYYCNARRESYYQRYRVDYWGQGTQVTVSS | low polyreactivity
24 | QVQLVESGGGLVQAGGSLRLSCAASGRTFTTYAMGWYRQAPGKERELVAAISGSGGSTYYADSVKGRFTISRDNAKNTVYLQMNSLKPEDTAVYYCATAYYYHGGYYYPYDDYWGQGTQVTVSS | low polyreactivity
25 | QVQLVESGGGLVQAGGSLRLSCAASGYIFGNYAMGWYRQAPGKERELVADITWRGDSTYADSVKGRFTISRDNAKKTVYLQMNSLKPEDTAVYYCAADIATEYWYTGYDHWGQGTQVTVSS | low polyreactivity
26 | QVQLVESRGGLVQAGGSLRLSCAASGSIFIYNAMGWYRQAPGKERELVAANSSSGGSTYYADSVKGRFTNSRDNEKNTVYLQMNSQNPEDTAVYYCAARTYYVRGLRGRPGMDYWGQGTQVTVSS | low polyreactivity
27 | QVQLVETGGGLVQAGVSHRLSFASSGSTFVEYVMGWYRQAPGKERELVARITWGGGITYYADSVKVRFTFSRDNAKNTVYLLMNRVNPEDNAVYYCAAGTITYGYGYDYWGQGTQVSVSS | low polyreactivity
28 | QVQLVESGGGLVQAGGSLRLSCAASGITFYGYAMGWYRQAPGKERELVAAITRGGSTNYADSVKGRFTISRDNAKNTVYLQMNSLKPEDTAVYYCAAEYSVYWYYRYEYWGQGTQVTVSS | high polyreactivity
29 | QVQLVESGGGLVQEGGSLRLSCAASGSILIVYAMGWYRQATGKERELVAAITRGGRTNYADSVKGRFTISRDNAKNTVYLQMNSLKPEDTAVYYCAARVLPANVKPYNYWGQGTQVTVSS | high polyreactivity
30 | QVQLVESGGGLVQAGVSLRLSCAASGSTFVSNAMGWYRQAPGKERELVAAISWSGVRTYYADSVKGRITISRDNAKNTVYLQMNSLKPEDTAVYYCSKRIYGSRSSRFNYWGQGTQLTVSS | high polyreactivity
31 | QVQLVESGGGLVQAGGSLRLSCAASGSIFTLYAMGWYRQAPGKERELVAAINRSGGSTYYADSVKGRFTISRDNAKNTVYLQMNSVKPEATAVYYCNARQYTGRRYDYWGQGTQVTVSS | high polyreactivity
